Laboratory results as given in patent publication US20040058406A1.

Key:
[1] = molecular target: Flourescein-QSPKKG-CONH2 (neutrally charged phosphorylatable CDK2 substrate); assay: fluorescence polarization in a cuvette, 50 mM TAPS pH 9.0, poly-D-lysine added in aliquots; about 38 mP without polylysine
[2] = molecular target: phosphorylated product of Flourescein-QSPKKG-CONH2 (after overnight incubation with ATP and CDK2); assay: as above
[3] = molecular target: phosphorylated product of Flourescein-QSPKKG-CONH2 (after overnight incubation with ATP and CDK2); assay: fluorescence polarization in a cuvette, 50 mM TAPS pH 9.0, large excess of poly-D-lysine; about 38 mP without polylysine

fluorescence polarization [1]: 42 mP | fluorescence polarization [2]: 72 mP | fluorescence polarization [3]: 100 mP
Substance: poly-D-Lysine
